The values below come from paper PMC2190564.

Where only a bound is given, the exact number is not on record here.

The assay has as its target yeast actin filaments (S. cerevisiae) (UniProt P60010). Briefly: co-sedimentation.

Turning to “native yeast Abp1p (from UniProt P15891 1-592) (natural protein)”, the Kd is below 0.1 µM and the stoichiometry N (Abp1p per actin (molar)) was 1.

As a reminder, the Kd is the concentration at which binding is half-saturated. Read a high Kd as a looser complex.
